The values below come from patent CN115703834A (BOAOXIN BIOTECHNOLOGY NANJING CO LTD, dated 2023).

The target in experiment [1] is T1, 人CD47 (表面过表达人CD47的293F细胞) (human, UniProt Q08722 19-323).
T1 construct: whole, on cells; also called 表面过表达人CD47的稳定细胞系293F
Kind of experiment: flow cytometry on 293F cells overexpressing human CD47.

In experiment [2] the target is T2, 重组人CD47-his蛋白 (ACRO biosystems, cat#CD7-H5227, MW 15.6 kDa) (human, UniProt Q08722 19-139, biotin-labelled in the ELISA assays (sites not given); unlabelled in Biacore).
T2 construct: Bought protein; The same catalogue number is used unlabelled (SPR) and biotin-labelled (ELISAs); also called 人CD47蛋白; 生物素标记的人CD47; not shown: His tag
T2 sequence (Q08722 19-139 limits assumed): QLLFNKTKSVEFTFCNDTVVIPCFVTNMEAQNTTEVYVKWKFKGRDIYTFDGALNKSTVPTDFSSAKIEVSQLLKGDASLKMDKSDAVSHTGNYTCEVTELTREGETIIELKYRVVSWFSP
The experiment is described as follows: SPR (Biacore T200), antibody captured on goat anti-mouse IgG, CD47-his in flow.

T1 sequence (Q08722 19-323): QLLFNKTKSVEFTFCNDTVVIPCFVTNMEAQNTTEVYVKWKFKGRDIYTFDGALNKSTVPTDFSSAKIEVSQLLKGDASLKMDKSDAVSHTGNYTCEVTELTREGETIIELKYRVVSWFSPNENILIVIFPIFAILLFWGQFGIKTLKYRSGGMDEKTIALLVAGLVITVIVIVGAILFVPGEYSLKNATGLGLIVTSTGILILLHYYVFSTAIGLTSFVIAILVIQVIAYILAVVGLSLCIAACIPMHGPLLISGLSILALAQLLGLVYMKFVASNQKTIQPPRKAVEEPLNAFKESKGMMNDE

B1: 抗人CD47单克隆抗体1A5 (antibody, V domains shown)
VH: EVQLQQSGAELVRSGASVTLSCTASGFNIKDYYMNWVKQRPEQGLEWIGWIGPENGDTENDPRFQGKATMTADTSSNTAFLQLSSLTSEDTAFYYCNAGGRGGFPYWGQGTLVTVST
VL: DILLTQTPLSLPVSLGDQASFSCRSSQNIVHINGKTYLEWYLQKPGQSPKLLIYRVSNRFSGVPDRFSGSGSGTDFTLKISRVEAEDLGVYYCFQGSHVPRTFGGGTKLEIK
notes: also called 本发明的单克隆抗体1A5; 本发明的抗体1A5
In the case of B1, the binding result in experiment [1] and in experiment [2] was “binds” in each case.
